Source: publication PMC11897370 (Scientific Reports, 2025)

B1: Wild type (Wt) peroxiredoxin 6 (Prdx6), recombinant rat (enzyme)
chain: MPGGLLLGDEAPNFEANTTIGHIRFHDFLGDSWGILFSHPRDFTPVCTTELGRAAKLAPEFAKRNVKLIALSIDSVEDHFAWSKDINAYNGAAPTEKLPFPIIDDKDRDLAILLGMLDPAEKDEKGMPVTARVVFIFGPDKKLKLSILYPATTGRNFDEILRVVDSLQLTASNPVATPVDWKKGESVMVLPTLPEEEAKQLFPKGVFTKELPSGKKYLRYTPQP
B2: D42A mutant of rat Prdx6 (enzyme)
chain: MPGGLLLGDEAPNFEANTTIGHIRFHDFLGDSWGILFSHPRAFTPVCTTELGRAAKLAPEFAKRNVKLIALSIDSVEDHFAWSKDINAYNGAAPTEKLPFPIIDDKDRDLAILLGMLDPAEKDEKGMPVTARVVFIFGPDKKLKLSILYPATTGRNFDEILRVVDSLQLTASNPVATPVDWKKGESVMVLPTLPEEEAKQLFPKGVFTKELPSGKKYLRYTPQP
B3: H79A mutant of rat Prdx6 (enzyme)
chain: MPGGLLLGDEAPNFEANTTIGHIRFHDFLGDSWGILFSHPRDFTPVCTTELGRAAKLAPEFAKRNVKLIALSIDSVEDAFAWSKDINAYNGAAPTEKLPFPIIDDKDRDLAILLGMLDPAEKDEKGMPVTARVVFIFGPDKKLKLSILYPATTGRNFDEILRVVDSLQLTASNPVATPVDWKKGESVMVLPTLPEEEAKQLFPKGVFTKELPSGKKYLRYTPQP

Target: the molecule itself
Assay: dynamic light scattering

**Q.** How did the “stoichiometry N” value turn out when B1 was run?
**A.** The value was 2.

**Q.** Which “stoichiometry N” value does the source give for B2 here?
**A.** Its value is 2.

**Q.** Which “stoichiometry N” value does the source give for B3 here?
**A.** Its value is 2.
